# Data as given in publication PMC8064835 (Cell, 2021).
# What was measured:
# [1] = target: T1, SARS-CoV-2 receptor-binding domain (RBD) (SARS-CoV-2, UniProt P0DTC2); assay: ELISA
# [2] = target: T1, SARS-CoV-2 receptor-binding domain (RBD); assay: crystal structure
Binder,binding result [1],binding result [2]
"BG10–19 IgG1 (antibody, V domains shown) VH: EVQLVQSGAEVKKPGESLKISCKGSGYSFTSYWIGWVRQMPGKGLEWMGVIYPGDSDTRYSPSFQGQVTISADKSISTAYLQWSSLKASDTAMYYCARTQWGYNYGSHFFYMDVWGKGTTVTVSS VL: QSVLTQPPSASGTPGQRVTISCSGSSSNIGSDHVYWYQQLPGTAPKLFIYRNNQRPSGVPDRFSGSKSGTSASLAISGLRSEDEADYYCAAWDASLSGYVFGTGTKVTVL",binds,–
"BG10–19 Fab (Fab, V domains shown) VH: EVQLVQSGAEVKKPGESLKISCKGSGYSFTSYWIGWVRQMPGKGLEWMGVIYPGDSDTRYSPSFQGQVTISADKSISTAYLQWSSLKASDTAMYYCARTQWGYNYGSHFFYMDVWGKGTTVTVSS VL: QSVLTQPPSASGTPGQRVTISCSGSSSNIGSDHVYWYQQLPGTAPKLFIYRNNQRPSGVPDRFSGSKSGTSASLAISGLRSEDEADYYCAAWDASLSGYVFGTGTKVTVL",binds,–
"BG4–14 IgG1 (antibody, V domains shown) VH: not shown VL: QSALTQPASVSGSPGQSITISCTGTSSDVGSYNLVSWYQHHPGKAPKLMIYEVSKRPSGVSNRFSGSKSGNTASLTISGLQAEDETDYYCCSYAGSSTLVFGGGTKLTVL",binds,–
"BG4–25 Fab (Fab, V domains shown) VH: EVQLVESGGGLIQPGGSLRLSCAASGITVVRNYMTWVRQAPGKGLEWVSVIYSGGTTYYADSVKGRFTISRDNSKNTMYLQMNSLRAEDTAIYYCARDLEVVGAMDVWGQGTTVTVSS VL: EIVLTQSPGTLSLSPGERATLSCRASQSVPSSYLAWYQQKPGQAPRLLIYGASSRATGIPDRFSGSGSGTDFTLTISRLEPEDFAVYYCQQYGSPMYTFGQGTKLEIK",–,binds
